Experimental data as given in article PMC11066147.
“And” between values parts separate entries of the source, which are not always exact repeats. Identical values can stand only once. Like-named read-outs stand apart in the source and are kept apart here.

Assays:
Assay in all cases: SPR
[1] = target: PfHsp70-1LS (linker switch mutant of PfHsp70-1 carrying the linker of PfHsp70-z) (Plasmodium falciparum) (UniProt Q8IB24)
[2] = target: DnaKLS (linker switch mutant of DnaK harbouring the PfHsp70-z linker) (E. coli) (UniProt P0A6Y8)
[3] = target: PfHsp70-zLS (linker switch mutant of PfHsp70-z carrying the linker of canonical Hsp70) (Plasmodium falciparum) (UniProt Q8IC01)
[4] = target: PfHsp70-1LS (linker switch mutant of PfHsp70-1 carrying the linker of PfHsp70-z) (Plasmodium falciparum) (UniProt Q8IB24); remark: listed apart in the source
[5] = target: DnaKLS (linker switch mutant of DnaK harbouring the PfHsp70-z linker) (E. coli) (UniProt P0A6Y8); remark: listed apart in the source
[6] = target: PfHsp70-zLS (linker switch mutant of PfHsp70-z carrying the linker of canonical Hsp70) (Plasmodium falciparum) (UniProt Q8IC01); remark: listed apart in the source

Row | Substance | Kd [1] | Kd [2] | Kd [3] | Kd [4] | Kd [5] | Kd [6] | koff [2] | kon [2] | koff [1] | kon [1]
1 | ALLLMYRR (peptide) | 89.4 nM | 1950 nM | 36.5 nM | 99.3 nM | 2440 nM | 41.6 nM |  |  |  | 
2 | ANNNMYRR (peptide) | 778 nM | 1770 nM |  | 977 nM | 1690 nM | 3.3 nM |  |  |  | 
3 | DnaKLS (linker switch mutant of DnaK harbouring the PfHsp70-z linker) (from UniProt P0A6Y8 1-638) (natural protein) |  |  |  |  |  |  | 0.0714 s⁻¹ and 0.0903 s⁻¹ and 0.0492 s⁻¹ |  |  | 
4 | E. coli Hsp70 (DnaK) (from UniProt P0A6Y8 1-638) (natural protein) |  |  |  |  |  |  |  | 45700 M⁻¹ s⁻¹ and 73200 M⁻¹ s⁻¹ and 63200 M⁻¹ s⁻¹ |  | 
5 | NRLLTG (peptide) | 682 nM | 891 nM | 20.7 nM | 174 nM | 962 nM | 21.1 nM |  |  |  | 
6 | NRNNTG (peptide) | 132 nM | 716 nM | 59.5 nM | 466 nM | 855 nM | 25.6 nM |  |  |  | 
7 | PfHsp70-1LS (linker switch mutant of PfHsp70-1 carrying the linker of PfHsp70-z) (from UniProt Q8IB24 1-677) (natural protein) | 42400 nM and 17200 nM and 59000 nM |  |  |  |  |  |  |  | 0.0447 s⁻¹ and 0.0633 s⁻¹ and 0.0666 s⁻¹ | 
8 | Plasmodium falciparum heat shock protein 70-1 (PfHsp70-1) (from UniProt Q8IB24 1-677) (natural protein) | 4700 nM and 3370 nM and 998 nM |  |  |  |  |  |  |  | 0.0935 s⁻¹ and 0.0539 s⁻¹ and 0.0392 s⁻¹ | 19900 M⁻¹ s⁻¹ and 16000 M⁻¹ s⁻¹ and 39500 M⁻¹ s⁻¹
